# Experimental data as given in patent US20190184015A1, “IRRADIATION TREATMENT OF NEUROLOGICAL SENSATIONS BY PHOTOABLATION” (European Molecular Biology Laboratory, priority 2016, published 2019).
# Entries after “also recorded” stand apart in the source; their conditions may differ.
# Tests used:
# [1] = system: primary keratinocytes; assay: In-vitro photo-ablation of primary keratinocytes (propidium iodide staining); format: cell-based, mouse; details: wild type keratinocytes; near infra-red light; 24 hours after
# Procedure: 1 μM IL31^SNAP and 3 μM BG-IR700 were coupled for 1 hour at 37° C. The coupling reaction was applied for 10 minutes at 37° C. on primary wild type and IL31RA^−/− keratinocytes. Cells were then exposed to near infra-red light (680 nm) at 40 J/cm^2 for 2 minutes. 24 hours after light exposure cell death was assessed by Propidium iodide (PI) staining (Invitrogen #P3566) and cells were imaged with an epifluorescent microscope.
# [2] = system: Calcipotriol model of atopic dermatitis; assay: Calcipotriol model of atopic dermatitis; details: prevention: injection and near IR illumination 3 days prior to Calcipotriol
# [3] = system: TrkB positive afferents; assay: Innervation of skin and DRG neuron counts after photoablation; format: in vivo, mouse; details: 7 days after photoablation (13 days post-SNI)
# From the text: Prior to photoablation, TrkB positive lanceolate endings were detected around hair follicles (FIG. 9a) and innervating Meissner corpuscles in the plantar surface of the paw. […] It was further investigated whether loss of TrkB^CreERT2 neurons was also evident at the level of the cell soma by analyzing the number of TrkB^CreERT2 positive neurons in the DRG.
# [4] = system: HEK293T cells expressing TrkB/p75; assay: BDNF^SNAP-IR700 photoablation of HEK293T cells (propidium iodide); format: cell-based; details: HEK293T cells expressing TrkB/p75; 24 hours after brief illumination
# From the text: In initial experiments BDNF^SNAP-IR700 was applied to HEK293T cells expressing TrkB/p75 and cell death assayed following near infrared illumination.
# [5] = system: TrkB positive neurons; assay: Diphtheria toxin mediated ablation of TrkB+ sensory neurons in TrkBCreERT2::AviliDTR mice; format: in vivo, mouse; details: systemic injection; DRG sections
# [6] = system: wild type and IL31RA^−/− mice; assay: Scratching behavior upon intradermal injection of the ligand; format: in vivo, mouse; details: 5 μM
# [7] = system: phosphorylated Akt, pMAPK and pSTAT3; assay: Immunoblot of IL31 downstream signaling in injected skin; format: in vivo, mouse; details: skin harvested 1 hour after subcutaneous injection, 5 μM
# From the text: A conceptual problem of using IL31^SNAP therapeutically is that it in itself evokes itch. The inventors therefore sought to engineer IL31^SNAP to obtain a ligand that still binds to IL31 receptor complex but no longer promotes signaling. […] The K138A mutation denotes the murine IL31 mutations. The corresponding mutation in the human IL31 protein is at position K134 in the human IL31 (SEQ ID NO: 1). The inventors generated a recombinant IL31^K138A-SNAP fusion protein, labelled it with BG-Surface549 and applied it to keratinocytes. […] Importantly, such signal was not present in IL31RA^−/− keratinocytes (FIG. 2b). The inventors further assessed cellular signaling pathways activated by IL31^SNAP and […] in the skin by examining levels of phosphorylated Akt, pMAPK and pSTAT3 which have all been previously implicated in IL31 downstream signaling (14, 21, 22). […]
# To assess the coupling reaction, 10 and 20 pmol IL31^SNAP was coupled with 30 and 60 pmol BG549 respectively for 1 hour at 37° C. […] The bands corresponding to the binding of IL31^SNAP with BG549 were visualized by gel fluorescence. […] Protein lysate was quantified by Bradford assay. […] Bands were visualized using the ECL detection system (Amersham #RPN2106); band density was calculated using ImageJ and the levels of phosphorylated proteins were normalized to the total counterpart.
# [8] = system: IL31 Receptor A (IL31RA); assay: Binding studies in primary keratinocyte cultures with BG-Surface549 labelled ligand; design: species or system mouse
# From the text: The inventors produced recombinant IL31 with a C-terminal fusion of SNAP (IL31^SNAP) in E. Coli. […] To determine whether IL31^SNAP was functional the inventors first performed binding studies in primary keratinocyte cultures. IL31^SNAP was labelled in vitro with BG-Surface549 and applied to keratinocytes from wildtype or IL31 Receptor A (IL31RA) knockout mice (IL31RA^−/−). […] The inventors further examined IL31^SNAP labelling in vivo by injecting IL31^SNAP-Surface549 intradermally into the back skin of wild type and IL31RA^−/− mice. […] Finally, the inventors determined whether IL31^SNAP was active by quantifying scratching behavior in mice upon intradermal injection. […] Thus the IL31^SNAP retains the functional properties of native IL31.
# Primary keratinocytes were isolated from 1-3 day-old wild type and IL31RA^−/− mice as previously described (25). Briefly, newborn mouse skin was removed and incubated flat in cold and freshly thawed trypsin overnight, at 4° C., with the dermis side down. The next day, epidermis was peeled off, triturated and keratinocytes were cultured in serum free media (Invitrogen #10744-019) on Collagen I (Sigma #3867)-coated dishes (Ibidi #81151). All experiments were performed on 48-72 hours cultured cells.
# Cells were incubated with the coupling reaction for […] at 37° C., then washed 3 times in CIB; and imaged using confocal microscope.
Molecule,scratching behavior evoked by the ligand ([6]; IL31RA^−/− mice),scratching behavior evoked by the ligand ([6]; wildtype mice),"phosphorylation of Akt, MAPK and STAT3 in skin [7]",fluorescent signal in keratinocytes ([8]; IL31RA^−/− keratinocytes),fluorescent signal in keratinocytes ([8]; wildtype keratinocytes),further results
BG-PEG11-IRDye®700DX [IR700],,,,,,cell death after illumination [1]: not evident; development of atopic dermatitis-like indicators [2]: ineffective at blocking the progression of the condition; innervation of hairy and glabrous skin [3]: no apparent reduction in innervation; cell death after near infrared illumination [4]: not evident
diphtheria toxin,,,,,,ablation of TrkBCreERT2::AviliDTR and TrkB mRNA positive neurons [5]: ~90%; expression of other markers [5]: no change; reduction in the number of NF200 positive neurons [5]: ~40%
"IL31^SNAP: recombinant IL31 with a C-terminal fusion of SNAP, produced in E. Coli (protein, left off: small tags and cut ends, recombinant IL31 with a C-terminal fusion of SNAP, produced in E. Coli) TCSLSFGAPISKEDLRTTIDLLKQESQDLYNNYSIKQASGMSADESIQLPCFSLDREALTNISVIIAHLEKVKVLSENTVDTSWVIRWLTNISCFNPLNLNISVPGNTDESYDCKVFVLTVLKQFSNCMAELQAKDNTTC",did not evoke scratching,evoked robust scratching; also recorded: induced robust scratching,increased phosphorylation in each pathway,not present,strong fluorescent signal internalized,
IL31: native recombinant IL31 (Peprotech) (protein) TCSLSFGAPISKEDLRTTIDLLKQESQDLYNNYSIKQASGMSADESIQLPCFSLDREALTNISVIIAHLEKVKVLSENTVDTSWVIRWLTNISCFNPLNLNISVPGNTDESYDCKVFVLTVLKQFSNCMAELQAKDNTTC,did not evoke scratching,,,,,
"IL31^K138A-SNAP: recombinant fusion protein of murine IL31 point mutant K138A with SNAP (protein, left off: small tags and cut ends) TCSLSFGAPISKEDLRTTIDLLKQESQDLYNNYSIKQASGMSADESIQLPCFSLDREALTNISVIIAHLEKVKVLSENTVDTSWVIRWLTNISCFNPLNLNISVPGNTDESYDCAVFVLTVLKQFSNCMAELQAKDNTTC",,did not evoke any scratching above baseline levels,increase was absent,not present,Pronounced fluorescence,
